Experimental data published in the supplement of paper PMC9112550, “Optimization of the antimicrobial peptide Bac7 by deep mutational scanning” (BMC Biology, 2022).

tested on: Escherichia coli TOP10; test: shrunken log2 fold change of peptide-encoding DNA abundance (4.5 h post-induction vs induction); higher = less antimicrobial activity (less host growth inhibition); details: time post-induction: 4.5 h; library: site-saturation at positions 5, 18, 19, 20
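Further: peptides expressed intracellularly from a pBAD plasmid library in pooled LB shake-flask culture, induced with 0.3% L-arabinose, DNA abundance read by NGS, three biological replicates, DESeq2 with apeglm shrinkage.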

Sequence	shrunken log2 fold change
RRIRSRPPRLPRPRPRPNCCPRP	-0.105
RRIRGRPPRLPRPRPRPVCCPRP	0.957
RRIRRRPPRLPRPRPRPKNHPRP	-0.0297
RRIRWRPPRLPRPRPRPDENPRP	0.644
RRIRQRPPRLPRPRPRPCRHPRP	-0.000946
RRIRHRPPRLPRPRPRPYKRPRP	-0.051
RRIRHRPPRLPRPRPRPNDRPRP	-0.104
RRIRWRPPRLPRPRPRPFCKPRP	-0.13
RRIRMRPPRLPRPRPRPCMKPRP	-0.125
RRIRRRPPRLPRPRPRPPTPPRP	0.769
RRIRWRPPRLPRPRPRPRNPPRP	0.113
RRIRERPPRLPRPRPRPGICPRP	-0.0398
RRIRWRPPRLPRPRPRPYNNPRP	-0.991
RRIRTRPPRLPRPRPRPMAFPRP	-0.0075
RRIRERPPRLPRPRPRPIQRPRP	0.146
RRIRCRPPRLPRPRPRPRAMPRP	0.914
RRIRMRPPRLPRPRPRPQPSPRP	1.11
RRIRMRPPRLPRPRPRPEASPRP	3.48
RRIRCRPPRLPRPRPRPQNNPRP	-0.526
RRIRDRPPRLPRPRPRPSPRPRP	0.00292
RRIRVRPPRLPRPRPRPFNYPRP	-0.975
RRIRPRPPRLPRPRPRPIGYPRP	-0.0758
RRIRQRPPRLPRPRPRPQERPRP	-0.00247
RRIRMRPPRLPRPRPRPRRQPRP	1.13
RRIRQRPPRLPRPRPRPISCPRP	-0.00146

Sequence	shrunken log2 fold change
RRIRIRPPRLPRPRPRPYHCPRP	-0.0272
RRIRIRPPRLPRPRPRPNHFPRP	-0.694
RRIRMRPPRLPRPRPRPNVTPRP	0.0238
RRIRWRPPRLPRPRPRPRQVPRP	0.16
RRIRIRPPRLPRPRPRPHDEPRP	-0.463
RRIRWRPPRLPRPRPRPNTIPRP	-0.492
RRIRERPPRLPRPRPRPRMDPRP	-0.495
RRIRGRPPRLPRPRPRPFDHPRP	-0.0514
RRIRNRPPRLPRPRPRPDHLPRP	-0.0163
RRIRGRPPRLPRPRPRPFSKPRP	0.164
RRIRQRPPRLPRPRPRPLFCPRP	0.213
RRIRFRPPRLPRPRPRPIGFPRP	-0.27
RRIRHRPPRLPRPRPRPTNPPRP	-0.363
RRIRARPPRLPRPRPRPWSIPRP	-0.0906
RRIRHRPPRLPRPRPRPNFNPRP	-0.509
RRIRWRPPRLPRPRPRPVGGPRP	0.494
RRIRWRPPRLPRPRPRPPYLPRP	-0.184
RRIRMRPPRLPRPRPRPNNYPRP	0.0147
RRIRGRPPRLPRPRPRPDCHPRP	0.217
RRIRLRPPRLPRPRPRPKFIPRP	-0.304
RRIRLRPPRLPRPRPRPYRHPRP	-0.628
RRIRCRPPRLPRPRPRPHEPPRP	-0.00114
RRIRPRPPRLPRPRPRPHAEPRP	0.206
RRIRIRPPRLPRPRPRPTYYPRP	-0.827
RRIRHRPPRLPRPRPRPWNNPRP	-0.453

Sequence	shrunken log2 fold change
RRIRIRPPRLPRPRPRPKHGPRP	-0.113
RRIRLRPPRLPRPRPRPYWAPRP	0.216
RRIRYRPPRLPRPRPRPDGFPRP	-0.418
RRIRIRPPRLPRPRPRPEAIPRP	-0.0271
RRIRQRPPRLPRPRPRPANMPRP	-0.242
RRIRKRPPRLPRPRPRPWSEPRP	0.00538
RRIRFRPPRLPRPRPRPMQCPRP	0.188
RRIRDRPPRLPRPRPRPWVEPRP	0.105
RRIRDRPPRLPRPRPRPDTCPRP	0.00173
RRIRIRPPRLPRPRPRPHFCPRP	-0.139
RRIRCRPPRLPRPRPRPSPAPRP	1.35
RRIRYRPPRLPRPRPRPAEPPRP	0.0314
RRIRGRPPRLPRPRPRPHPQPRP	0.546
RRIRPRPPRLPRPRPRPDSYPRP	-0.422
RRIRKRPPRLPRPRPRPQHLPRP	0.0344
RRIRVRPPRLPRPRPRPGVDPRP	0.0334
RRIRKRPPRLPRPRPRPFIHPRP	-0.0282
RRIRQRPPRLPRPRPRPTQKPRP	0.0237
RRIRIRPPRLPRPRPRPQDFPRP	-0.1
RRIRPRPPRLPRPRPRPNGMPRP	0.171
RRIRSRPPRLPRPRPRPPAAPRP	1.1
RRIRWRPPRLPRPRPRPAYVPRP	0.0521
RRIRWRPPRLPRPRPRPMDTPRP	0.128
RRIRGRPPRLPRPRPRPMFDPRP	0.662
RRIRTRPPRLPRPRPRPEDCPRP	0.0288
